Where two headings read alike, the source gives them in different places.
Method: Molar masses of the samples were determined with universal calibration with the refractive index detector and the viscosity detector. The universal calibration curve was based on polystyrene standards [Polymer Laboratories (Amherst, Mass.) and Aldrich (Oakville, ON)] using the molar masses determined by the manufacturer and the intrinsic viscosities measured by the apparatus. The software OmniSEC™ software from Viscotek was used for data collection and calibration. Separation in THF was performed by injecting 100 μL of 1.5-2 mg/mL solutions of standards or samples into thermostatically controlled SuperRes™ columns [35° C.; PAS-102, PAS102.5, PAS-103L, each 300 mm×8 mm; PolyAnalytik (London, ON)]. The flow rate was 1 mL/min.
Alternatively, a thin film was prepared from 1 g of commercial available PCL pellets and used for degradation. The polymer was dissolved in dichloromethane in a 1 L beaker. The solvent was allowed to evaporate overnight and the resulting film dried to constant weight under reduced pressure. Prior to enzymatic treatment the film was cut into pieces (20 mg) of approximately 1.5 cm×1.5 cm and thickness of approximately 0.1 mm. The reaction mixture was monitored by HPLC and SEC as described above.
To quantify this further, pellets of polycaprolactone (PCL) as well as films of PCL were incubated with KrCUT at various enzyme concentrations (1.25 μM, 2.5 μM, and 5 μM representing 4.7, 9.5 and 19 enzyme Units) at 37° C. The degradation of the polymer was followed over time by analyzing aliquots of the reaction mixture by HPLC for the detection of the released monomer (6-hydroxyhexanoic acid) and characterization of the remaining polymer by SEC after lypholization of the sample.

B1: KrCUT: mature Kineococcus radiotolerans cutinase, amino acids 34-294 of SEQ ID NO: 1; SEQ ID NO: 6 (protein)
chain: ATCSDVDVVFARGTGETPGLGVVGGPFVRSLTGELSDRTVTSHAVDYAASSSQASAGPGATAMSAHVREVAAACPSTRFVLGGYSQGATVTDIALGIRTGTTTGTPVPAELAGRVAAVVVFGNPLGLSGRTIATASSTYGPKSKDYCNSSDSVCGSAPKTGTGGHLSYASNGSTTDGARFAAGLVRAAGTPTTPTPTPTPTPVPTTCVRDSTRDHVAADRAVSLYGRAYARGSRDSLGATSSYNVVSLQQVEGGWRLVTAC
modifications: Kineococcus radiotolerans; (1)..(261) KrCUT (lacking residues 1-33 of ssKrCUT)
polymer peak in SEC (2.5-5 μM, 24 hours): complete disappearance of the polymer | 6-hydroxy hexanoic acid from PCL pellets, % of the maximum yield (PCL pellets, 2.5 μM protein, 24 hours): 18% | degradation of thin films of PCL (enzyme 1.25 μM, 24 hours): nearly completely degraded | acidic monomers released from PCL (enzyme 2.5 or 5 μM, 6 hours, 37° C.): ~90% | Mn of remaining PCL (time 0 h): 44000 Daltons | Mw of remaining PCL (time 0 h): 63300 Daltons | PCL (SEC) (time 0 h): 100% | acid (HPLC) (time 0 h): 0% | Mn of remaining PCL (time 1 h): 53800 Daltons | Mw of remaining PCL (time 1 h): 64400 Daltons | PCL (SEC) (time 1 h): 61% | acid (HPLC) (time 1 h): 28% | Mn of remaining PCL (time 3 h): 55000 Daltons | Mw of remaining PCL (time 3 h): 66600 Daltons | PCL (SEC) (time 3 h): 27% | acid (HPLC) (time 3 h): 60% | Mn of remaining PCL (time 6 h): 58200 Daltons | Mw of remaining PCL (time 6 h): 68100 Daltons | PCL (SEC) (time 6 h): 12% | acid (HPLC) (time 6 h): 85% | Mn of remaining PCL (time 24 h): 69500 Daltons | Mw of remaining PCL (time 24 h): 74000 Daltons | PCL (SEC) (time 24 h): 0.3% | acid (HPLC) (time 24 h): 100%
